Experimental data published in the supplement of paper PMC11246515.
± gives the standard deviation of the averaged measurements.

Assay: total protein half-life in vivo (active degradation + dilution); higher = more stable protein
[1] = E. coli NCM3722 delta-clpP delta-lon delta-hslV, growth: N-lim chemostat, doubling time 6 h
[2] = E. coli NCM3722 delta-clpP, growth: N-lim chemostat, doubling time 6 h
[3] = E. coli NCM3722 delta-hslV, growth: N-lim chemostat, doubling time 6 h
[4] = E. coli NCM3722 delta-smpB, growth: N-lim chemostat, doubling time 6 h
[5] = wild type E. coli NCM3722, growth: C-lim chemostat, doubling time 3 h
[6] = wild type E. coli NCM3722, growth: C-lim chemostat, doubling time 6 h
[7] = wild type E. coli NCM3722, growth: C-lim chemostat, doubling time 12 h
[8] = wild type E. coli NCM3722, growth: N-lim chemostat, doubling time 6 h
[9] = wild type E. coli NCM3722, growth: N-lim chemostat, doubling time 12 h
[10] = wild type E. coli NCM3722, growth: P-lim chemostat, doubling time 6 h
[11] = wild type E. coli NCM3722, growth: P-lim chemostat, doubling time 12 h
[12] = E. coli NCM3722 delta-lon, growth: N-lim chemostat, doubling time 6 h

Row | Sequence | total protein half-life in vivo [1] [h] | total protein half-life in vivo [2] [h] | total protein half-life in vivo [3] [h] | total protein half-life in vivo [4] [h] | total protein half-life in vivo [5] [h] | total protein half-life in vivo [6] [h] | total protein half-life in vivo [7] [h] | total protein half-life in vivo [8] [h] | total protein half-life in vivo [9] [h] | total protein half-life in vivo [10] [h] | total protein half-life in vivo [11] [h] | total protein half-life in vivo [12] [h]
1 | MKRVLIPGVILCGADVAQAVDDKNMYMHFFEEMTVYAPVPVPVNGNTHYTSESIERLPTGNGNISDLLRTNPAVRMDSTQSTSLNQGDIRPEKISIHGASPYQNAYLIDGISATNNLNPANESDASSATNISGMSQGYYLDVSLLDNVTLYDSFVPVEFGRFNGGVIDAKIKRFNADDSKVKLGYRTTRSDWLTSHIDENNKSAFNQGSSGSTYYSPDFKKNFYTLSFNQELADNFGVTAGLSRRQSDITRADYVSNDGIVAGRAQYKNVIDTALSKFTWFASDRFTHDLTLKYTGSSRDYNTSTFPQSDREMGNKSYGLAWDMDTQLAWAKLRTTVGWDHISDYTRHDHDIWYTELSCTYGDITGRCTRGGLGHISQAVDNYTFKTRLDWQKFAVGNVSHQPYFGAEYIYSDAWTERHNQSESYVINAAGKKTNHTIYHKGKGRLGIDNYTLYMADRISWRNVSLMPGVRYDYDNYLSNHNISPRFMTEWDIFANQTSMITAGYNRYYGGNILDMGLRDIRNSWTESVSGNKTLTRYQDLKTPYNDELAMGLQQKIGKNVIARANYVYREAHDQISKSSRTDSATKTTITEYNNDGKTKTHSFSLSFELAEPLHIRQVDINPQIVFSYIKSKGNLSLNNGYEESNTGDNQVVYNGNLVSYDSVPVADFNNPLKISLNMDFTHQPSGLVWANTLAWQEARKARIILGKTNAQYISEYSDYKQYVDEKLDSSLTWDTRLSWTPQFLQQQNLTISADILNVLDSKTAVDTTNTGVATYASGRTFWLDVSMKF | 5.87 ± 0.22 | 5.83 ± 0.27 | > 8 | 5.751 ± 0.012 | 3.16 ± 0.12 | 6.17 ± 0.26 | 9.31 ± 0.88 | 6.68 | 12.2 ± 1.3 | 6.72 | 14.44 ± 0.031 | 
2 | MFRPFLNSLMLGSLFFPFIAIAGSTVQGGVIHFYGQIVEPACDVSTQSSPVEMNCPQNGSIPGKTYSSKALMSGNVKNAQIASVKVQYLDKQKKLAVMNIEYN |  |  |  |  | 0.288 | 0.225 |  |  |  |  |  | 
3 | MKIAFIGEAVSGFGGMETVIRDVITTFRQQHIQSEMFFFCRNDKMDKGWLEGIKYSCSFSNIRLGFLRRAKHIHALSKWLQEYQPDIVICIDVISCLFAAKARKKSGIDMPVFSWPHFSLDHKKHAEYITCADYHLAISSGIKQQMINRGVAESTINVIFNPVETKDSVIPAPEEGETATFIYVGRMKFEGQKRVKDLLDGLSQAKGNWKLHVLGDGSDFEKCQAYGRELNIDDRIVWYGWQQYPWELVQQDIEKVSALLLTSSFEGFPMTLLEALSWGIPCISADCVSGPADIIQPDVNGHLYQPGDIAGFVTLLNKYIAGEIHIEHEKIPASIDEFYQSKYYDRLHKVIISAISRRK | 5.73 ± 0.45 |  |  | 5.9 ± 0.06 | 2.96 ± 0.11 |  | 10.9 ± 0.65 | 6.03 ± 1.8 | 12.1 ± 1.4 | 6.21 ± 0.58 | 11.8 ± 0.7 | 6.05 ± 0.67
4 | MNKETQPIDRETLLKEANKIIREHEDTLAGIEATGVTQRNGVLVFTGDYFLDEQGLPTAKSTAVFNMFKHLAHVLSEKYHLVD [P0AB61] | 5.24 ± 0.27 | 3.59 | 3.12 ± 0.036 | 2.91 ± 0.23 | 2.64 | 4.89 ± 0.3 | 9.62 ± 3.9 | 2.5 ± 0.063 | 4.72 | 6.02 |  | 3.65 ± 0.14
5 | MSQRGLEALLRPKSIAVIGASMKPNRAGYLMMRNLLAGGFNGPVLPVTPAWKAVLGVLAWPDIASLPFTPDLAVLCTNASRNLALLEELGEKGCKTCIILSAPASQHEDLRACALRHNMRLLGPNSLGLLAPWQGLNASFSPVPIKRGKLAFISQSAAVSNTILDWAQQRKMGFSYFIALGDSLDIDVDELLDYLARDSKTSAILLYLEQLSDARRFVSAARSASRNKPILVIKSGRSPAAQRLLNTTAGMDPAWDAAIQRAGLLRVQDTHELFSAVETLSHMRPLRGDRLMIISNGAAPAALALDALWSRNGKLATLSEETCQKLRDALPEHVAISNPLDLRDDASSEHYIKTLDILLHSQDFDALMVIHSPSAAAPATESAQVLIEAVKHHPRSKYVSLLTNWCGEHSSQEARRLFSEAGLPTYRTPEGTITAFMHMVEYRRNQKQLRETPALPSNLTSNTAEAHLLLQQAIAEGATSLDTHEVQPILQAYGMNTLPTWIASDSTEAVHIAEQIGYPVALKLRSPDIPHKSEVQGVMLYLRTANEVQQAANAIFDRVKMAWPQARVHGLLVQSMANRAGAQELRVVVEHDPVFGPLIMLGEGGVEWRPEDQAVVALPPLNMNLARYLVIQGIKSKKIRARSALRPLDVAGLSQLLVQVSNLIVDCPEIQRLDIHPLLASGSEFTALDVTLDISPFEGDNESRLAVRPYPHQLEEWVELKNGERCLFRPILPEDEPQLQQFISRVTKEDLYYRYFSEINEFTHEDLANMTQIDYDREMAFVAVRRIDQTEEILGVTRAISDPDNIDAEFAVLVRSDLKGLGLGRRLMEKLITYTRDHGLQRLNGITMPNNRGMVALARKLGFNVDIQLEEGIVGLTLNLAQREES | 5.32 ± 0.66 | 5.3 ± 0.37 | 4.54 ± 0.15 | 4.92 ± 0.72 | 3.28 ± 0.35 | 6.133 ± 0.015 | 12.2 ± 0.95 | 5 ± 0.23 | 7.46 ± 0.52 | 6.35 ± 0.48 | 14.1 ± 0.23 | 4.46 ± 0.67
6 | MQQRRPVRRALLSVSDKAGIVEFAQALSARGVELLSTGGTARLLAEKGLPVTEVSDYTGFPEMMDGRVKTLHPKVHGGILGRRGQDDAIMEEHQIQPIDMVVVNLYPFAQTVAREGCSLEDAVENIDIGGPTMVRSAAKNHKDVAIVVKSSDYDAIIKEMDDNEGSLTLATRFDLAIKAFEHTAAYDSMIANYFGSMVPAYHGESKEAAGRFPRTLNLNFIKKLDMRYGENSHQQAAFYIEENVKEASVATATQVQGKALSYNNIADTDAALECVKEFAEPACVIVKHANPCGVAIGNSILDAYDRAYKTDPTSAFGGIIAFNRELDAETAQAIISRQFVEVIIAPSASEEALKITAAKQNVRVLTCGQWGERVPGLDFKRVNGGLLVQDRDLGMVGAEELRVVTKRQPSEQELRDALFCWKVAKFVKSNAIVYAKNNMTIGIGAGQMSRVYSAKIAGIKAADEGLEVKGSSMASDAFFPFRDGIDAAAAAGVTCVIQPGGSIRDDEVIAAADEHGIAMLFTDMRHFRH | 5.11 ± 0.42 | 4.51 ± 0.51 | 4.73 ± 0.56 | 4.41 ± 0.28 | 3.19 ± 0.3 | 5.88 ± 0.38 | 9.3 ± 0.86 | 4.36 ± 0.22 | 6.9 ± 0.074 | 5.961 ± 0.037 | 11.9 ± 0.6 | 4.99 ± 0.032
7 | MENNEIQSVLMNALSLQEVHVSGDGSHFQVIAVGELFDGMSRVKKQQTVYGPLMEYIADNRIHAVSIKAYTPAEWARDRKLNGF [P0A9W6] | 5.36 ± 0.32 | 3.86 ± 0.21 | 4.35 ± 0.56 | 4.08 ± 0.3 | 3.11 ± 0.42 | 4.5 | 7.8 ± 0.37 | 4.09 ± 0.043 | 7.378 ± 0.011 | 4.79 ± 0.25 | 10.8 ± 1.1 | 5.87 ± 1.2
